Experimental data from the nanobody polyreactivity screen of Harvey et al. (2022).

Test: yeast display, Sf9 membrane polyspecificity reagent, FACS + sequencing; frameworks hold sequencing errors
How it was run: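 A nanobody's polyreactivity label depends on the gate it was sorted from. Yeast display cells were stained with 10% biotinylated, detergent-solubilized Sf9 membrane reagent for 1 hour at 4 °C, enriched on streptavidin microbeads and sorted by FACS. The low and high (top ~1%) gates were set on anti-HA fluorescence for expression and streptavidin fluorescence for reagent binding.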

Sequence	polyreactivity (PSR sort gate)
QVQLQESGRGLVQAGGSLRLSCAASGTISQEDWMGWYRQAPGKEREFVAAIGLGSNTNYADSLKGRFTISRDNAKNTVYLQMNSLKPEDTAVYYCAVSVWQYSDHVYRGQGTQVTVSS	low polyreactivity
QVQLEESGGGLVQAGGSLRLSCAASGFIITWYTMGWYRQAPGKERELVAAITSGGNTNYADSVKGRFTISRDNAKNTVYLQMNCLKPEDTAVYYCARGYLASRLKFAKYDYWGQGTQVTVSS	high polyreactivity
QVQLVESGGGLVQAGGSLRLSCAASASTLYRTAMGWYRPAPGKEREMVAAINYRGTRTYYADSVKGRFTISRDNAKNTVYLLMKSLNPEDTAVYYCAKDYSQFVTYPYDYWGQGTQVSVSS	low polyreactivity
QVQLVESGGGLVQAGGSLRLSCAASGSTFVPYTMGWYRQAPGKERELVAVITSGGSTNYADSVKGRFTISLDNAKNTVYLQMNSLKPEDTAVYYCDARRRGRKERGEDYWGQGTQVTVSS	high polyreactivity
QVQLVESGGGLVQAGGSLRLSCAASGSIFTNNAMGWYRQAPGKERELVAGISIRGSSTYADSVKGRFTISRDNAKNTVYLQMNSLKPEDTAVYDCAADAYLELDPEVDYWGQGTQVTVSS	low polyreactivity
QVQLVESVGGLVHAGGSLRLSCAASGSIFTKNAMGWYRHAPGKERELVAAITGSGGSTYYADSVKGRFTISRDNAKNTVYLQMNSLKPEDTALYYCAANFVFWSGAVYTRYDYWGQGTQVTVSS	high polyreactivity
QGQIVESGGGLVQAGGSLRLSCAASGFTFRRYAMGWYRQAPGKEREVVAGITSSGGSTYYADSVKGRFTSSRDKAKNPVYLQMNSLKPEDTAVYYCAAEWVYTSFDYWGQGTQVSVSS	high polyreactivity
QVQLVESGGGLVQAGGSLRLSCAASGSTFQYYAMGWYRQAPGKERELVAAISSGGSTYYADSVKGRFTISRDNAKNTVYLQMNSLKPEDTAVYYCAADFVNRQANRQFDYWGQGTQVTVSS	high polyreactivity
QVQLVESGGGLVQAGGSLRLSCAASGRIFGRYAMGWYRQAPGKERELVAVISSGGSTYYADSVKGRFTISRDNAKNTVYLQMNSLKPDDTAVYYCAAVIRGGYDYWGQGTQVTVSS	low polyreactivity
QVQLVESGGGLVQAGGSLRLSCAASGGIFWFNAMGWYRQAPGKEREFVAAITWRGGSTYYADSVKGRFTISRDNAKNTVYLQMNSLKPEDTAVYYCAATYWWHRSSGWDRVEYWGQGTQVTVSS	high polyreactivity
QVQLVESGGGLVQAGGTLRLSCAASGRTLRRYAIGWYRQAPGTERELVADNSWRGTSTNYADSVKGRFTISRDNAKNTVYLQMNSLKPEDTAVYYCAAKQTYTRLHYLGPSVWDNYDYWGQGTQVTVSS	high polyreactivity
QVQLVESGGGLVQAGGSLRLSCASSGSIFLYNAMGWYRQAPGKERELVAVINGRGGTYYADSVKGRFTISRDNAKNTVYLQMNSLKPEDTAVYYCATGFPPSAWYDSVRFEDRDSWGQGTQVTVSS	low polyreactivity
QVQLVESGGRLVQAGGSLRLSCAASGRTIGLNGMGWYRQAPGTERELVAGISWSGGSTNYADSVKGRFTISRDNAKNTVYLQMNSLKPEDTAVYYCAADFVYYVVNDFGWSYAYEYWGQGTQVTVSS	low polyreactivity
QVQLVESGGGLVQAGGSLRLSCAASGSILVTYAMGWYRQAPGKERELVAAISRGGRTYYADSVKGRFTISRDNAKNTVYLQMNSLKPEDTAVYYCNADRVTFSWPVNYYWVDYWGQGTQVTVSS	high polyreactivity
QVQLVESGGGLVQAGGSLRLSCAASGSTLSDNAMGWYRQAPGKERELVARISGDGSTNYADSVKGRFTISRDNAKNTVYLQMNSLKPDDTAVYYCNAGTAGIYYYGKSDYWGQGTQVTVSS	low polyreactivity
QVQLEESGGGLVQAGGSLRLSCAASGSIFGQYAMGWYRQAPGKERELVAAISTRGGSTRYADSVKGRFTISRDNAKNTVYLQMNSLTPEGTAVYYCAARVPYIRHLAVDYWGQGTQVTVSS	high polyreactivity
QVQLVESGGGLVQAGGSLRLSCAASGSIFQPYAMGWYRQAPGKERELVAAITNGGSTYYADSVKGRFTISRDNAKNTVYLQMNSLKPEDTAVYYCATDVLLYFEPVNLDYWGQGTQVTVSS	low polyreactivity
QVQLVESGGGLVQAGGSLRLSCAASGITFYGYAMGWYRQAPGKERELVAVITPSGSSTYYADSVKGRFTISRDNAKNTVYLQMNSLIPEDTAVYYCNARPGRRSLRSRTYDYWGQGTQVTVSS	high polyreactivity
QVQLVESGGGLVQAGGSLRLSCAATGGTFEFYTMGWYRQAPGKERELVAVINASGDSTYYADSVKGRFTISRDNAKNTVYLQMNSLKPEDTAVYYCAADNQGYTTKWRREYYYWGQGTQVTVSS	low polyreactivity
QVQLVESGGGLVQAGGSLRLSCAASGRIIYNNAMGWSRQAPGTERELVAAISIGGITYYADSVKGRFTISRDNAKNTVYLQMNSLKPEDTAVYYCAALNTGYRTRRLGRDYWGQGTQVTVSS	low polyreactivity
QVQLVESGGGLVQAGGSLRLSCAASGSTLVDYAMGWYRQAPGKERQLVAAITSGGSTNYADSVMGRFTISRDNAKKTVYLQMNSLKPEDTAVYYCAAEWQRGLQAEYYYWGQGTKVTVSS	low polyreactivity
QVQLVESGGGLVQAGGSLRLSCAASGFTFKWYAMGWYRQAPGKERELVATITIGGRTNYADSVKGRFTISRDNAKNTVYLQMNSLKPEDTAVYCCATFFVGFRLSDYDYWGQGTQVTVSS	low polyreactivity

Sequence	polyreactivity (PSR sort gate)
QVQLVESGGGLVQAGGSLRLSCAASGSTFSRNVMAWYRQAPGKDRELVAAISRGGSTNYADSVKGRFTISRDNAKNTVYLQMNSLKPEDTAVYYCNAPRLGKFYYWGQGTQVTVSS	low polyreactivity
QVQLVESAAGLVQAGGSLRLSCAASGITFYRNAMGWYRQARGNEMELGAAITWNGGRTYYADSVKGRFTISRDNAKNTVYLQMNSLKPEDTALYYCAADSGTRNLASYRYYYWGQGTQVTVSS	high polyreactivity
QVQLVESGGGLVQAGGSLRLSCAASGRTFRYNAMGWYRQAPGKERELVARISRGGSTYADSVKGRFTISRDNAKNTVYLQMNSLKPEDTAVYYCAAYPTKHNQSEYYYWGQGTQVTVSS	low polyreactivity
QVQLVESGGGLVQAGGSLRLSCAASGSIFDLYDMGWYRQAPGKERELVADISFSGGSTFYADSVKGRFTISRDNAKNTVYLQMNSLKPEDTAVYYCAADAALITDYGWADMYYWGQGTQVTVSS	low polyreactivity
QVQLVDSGGGLVQAGGSLSLSCAASGSILRYYAMVWYRQAPGKERELVAAISRSGGSTYYADSVKGRVTISGDNAKNKVYLLMNRLKPEDTAVYYCANSDFGHHVTGFGYWGQGTQVTVSS	low polyreactivity
QGQLVVSGGGLVQAGGSLRLSCAASGRTFSVNAMGGYRQAPGKERELVAAITSGASTNYADSVKGRFTISRDNAKNTVYLQMNSLKPEDTAVYYCAADATYGHVPAEYDYWGQGTQVTVSS	low polyreactivity
QVQLVESGGGIDQAGGSLRLSCAASGFIFTNYAMGWYRQAPGKERELVAAITRRGGGTYYADSVKGRFTISRDNAKKTVYVQMNSLKPEDTAVYYCAKYSRLVTANDYDYWGQGTQVTVSS	high polyreactivity
QVQLVESGGGLVQAGGSLRLSCAASGFTFTKYDMGWYRQAPGKETELVAVITWSGGSTYYADSVKGRFTISRDNAKNTVYLQMNSLKPEDTAVYYCNAEAPRYTYGRMDYWGQGTQVTVSS	low polyreactivity
QDQLVESGGGLGQAGGTLRLSCAASGNTFTFNTMGWHRQEPGKEREVVAVISRSGGSTYYSDSVKGRITISRDNAKNTVYLQMNSLKPEDTAVYYCAAQGYWYGFVPYDYWGQGTQVTVSS	high polyreactivity
QVQLVESGGGLVHAGGSLRLSCAASGSIFAGYAMGRYRQAPGKERELVAAITSGGRTYYADSVKGRFTISRDNAKNTVYLQMNSLKPEDTAVYYCGKRWYTKTGYDYWGQGTQVTVSS	high polyreactivity
QVQLVESGGGLVHAGGSLSLSCAASGSIFPTNVMGWYRQAPGKERELVAAISANDGSTYYADSVKGRFTISRDNAKNTVYLQMNSLKPEDTAVYYCNQEGYTYRFTWYDYWGQGTQVTVSS	low polyreactivity
QVQLVESGGGLVQAGGSLRLSCAASGTICYPYAMGWYRQAPGKERELVASISWSGGSTRYADSVKGRFTISRDNAKNTVYLQMNSLKPEDTAVYYCAARYILSKYGSGVRYNYWGQGTQVTVSS	high polyreactivity
QVQLVESGGGLVQAGGSLRLSCAASGRIFRYYAMGWYRQAPGKERELVAAISKSGGSTYYADSVKGRFTISRDNAKNTVYFQMNSLKPEDTGVYYCNARSRLGGLYEYWGQGTQVTVSS	high polyreactivity
QVQLVESGGGLVQAGGSLRLSCAASGRTFYRNAMGWYRQAPGKERELVARITSGGSTNYADSVKGRFTISRDNAKNTVYLQMNSLKPEDTAVYYCAAVSRYYPYGYWGQGTQVNVSS	high polyreactivity
QVQLVESGGGLVQAGGSLRLSCAASGFTFWYYAMGWYRQAPGKERELVASISASGGRTNYADSVKGRFTISRDNAKNTVYLQMNSLKPEDTAVYYCAACRVRYSYGYPYYYWGQGTQVTVSS	high polyreactivity
QVQLVESGGGLDQAGGSLRLSCAASGSIYYTAMGWYRQAPGKERELVASISTGDSTDYADSVKGRFTISRDNAKNTVYLQMNSLKPEDTAVYYCAADTRLGYWDDYWGQGTQVTVSS	low polyreactivity
QVQLVESGGGLVQAGGSLRLSCAASGSTFYVYAMGWYRQAPGKERELVAAISKRGGTTYYADSVKGRFTISRDNAKNTVYLQMNSLKPEDTAVYYCATVSSSRDHDYWGQGTQVTVSS	high polyreactivity
QVQLVESGGGLVHAGGSLRLSCAASGFTFTAYARGWYRQATGKERELVAAINWSGSRTYNADSVKGRFTISRDNAKNTVYLQMNSLKPEDSAVYYCNTATSKSSYRHYDYWGQGTLVTVSS	high polyreactivity
QVQLVESGGGLVQAGGSLRLSCAASGLTLRRYAMGWYIQAPGKERELVASINSGTSTKYADSVKGRFTISRDNAKNTVYLQMKSLKPEDTALYYCGAAVYFPTAGSRRAYYYWGQGTQGTVSS	high polyreactivity
QVQLVESGGGLVQAGGSLRLSCAASGSIFTSNAMGWYRQAPGKERELVAAITSSSSTNYADSVKGRFTISRDNAKNTVYLQMNSLKPEDTAVYYCAKQGNNIPWYRPYGDYYYWGQGTLVTVSS	low polyreactivity
QVQLVESGGGLVQAGGSHRLSCAASGIIFYRNAMGWYRQAPGKERELVATITVSSGSTYYADSVKGRFTISRDNAKNTVYLLMYSLKPEDTAVYYCNARYYYFSVRYKYDFNYWGQGTQVTVSS	high polyreactivity
